Publication PMC5823869

Target: YAP2L/TAZ in cells
Experiment: non-reducing SDS-PAGE with immunoblot; cell lysates (15 µg of transfected HEK293; 30 µg of H460 for endogenous TAZ) in SDS sample buffer without DTT, 3 min at 60 °C; blot with anti-FLAG, anti-HA or anti-TAZ; series with increasing DTT run beside

YAP2L/TAZ in cells
percent of the total protein that is dimer: 20 to 30%
